The RNAGym collection of RNA variant scans (doi:10.1073/pnas.2313332121)

B1: TPR t1 (parent)
chain: GACCAAUCUGCCCUCAGAGCUCGAGAACAUCUUCGGAUGCAGAGGAGGCAGGCUUCGGUGGCGCGAUAGCGCCAACGUCCUCAACCUCCAAUGCAUCCCACCACAUGAUGAUGCCUGAAGAGCCUUGGUUUUUUG

Variants of: B1
Experiment: polymerase ribozyme fitness, log enrichment relative to wild type (log ratio); higher = more active; in vitro selection for triplet polymerase activity
Procedure, shortened: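 Mutant libraries for each subunit of a heterodimeric triplet polymerase ribozyme were made by PCR and then transcribed. Each library underwent one round of in vitro selection in triplicate: annealing with a biotinylated primer, the partner subunit and triplets, frozen incubation at −7 °C, gel excision of extended constructs, streptavidin-bead capture and RT-PCR. Input and output libraries were Illumina-sequenced, and only genotypes with ≥10 input reads and ≥1 read per output were kept. Fitness is the logarithm, base 2, of genotype enrichment over wild-type enrichment, computed from inverse-variance-weighted replicate averages.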

Row | Variant | polymerase ribozyme fitness (log ratio)
1 | A2G U9C C13U A18U C56G A95G | -1.78
2 | A2G G107U | -5.37
3 | A2U G47A C72A A121G | -0.127
4 | A2G G10U A43U C62G C79U | -3.6
5 | A2G C20G G113A | -1.61
6 | A2C C13A G36C G120U | -1.59
7 | A2C G110A A121C | -2.66
8 | A2C G10A C13U G69C | -3.6
9 | A2U C4A U33G C49G G58C A121C | -5.98
10 | A2U A16G A26U G60U A119G | -4.84
11 | A2G G63C U116A | -4.03
12 | A2U C53G C88G | -3.42
13 | A2G U9G G10U A27C C56G | -3.86
14 | A2G G10C G51C G52U | -5.66
15 | A2C C62U G110A | -3.07
16 | A2U C12U A27U G47A | -5.43
17 | A2C U14G U54G U96G A100U G117A U126A U129G | -5.8
18 | A2G C11A C56G | -1.58
19 | A2U C8U G47C G93U | -4.25
20 | A2G G63A C99U C101A A121G C124G | -4.81
21 | A2U C15G | -4.66
22 | A2C G44C | -3.44
23 | A2C G42U | -3.31
24 | A2G C97U G117A A119G | -0.0934

Row | Variant | polymerase ribozyme fitness (log ratio)
25 | A2C C101A U129A | -2.79
26 | A2U C82U C86G A121G | -0.832
27 | A2G A18U C28G C124A U130C | -5.83
28 | A2U C40U G47U C72U C124A | -3.11
29 | A2G C20U | -1.26
30 | A2U A46U G47C G71A U132C | -3.81
31 | A2C C13G C15U C62U | -4.93
32 | A2G G71U | -0.153
33 | A2C U7G G57U G60U | -0.82
34 | A2C A24G A29C G47U G120A | -5.73
35 | A2C U7A G10U C98U | -4.07
36 | A2C A83U | -1.1
37 | A2G C28U G110U | -2.63
38 | A2C C12G G69U | 0.12
39 | A2G C114A U126C | -4.32
40 | A2C C88G C104A U112G | -4.8
41 | A2U C13A C73U A74G | -3.05
42 | A2G U21A G69U G71C | -4.01
43 | A2C C12U G42U A84U C94A U129A | -3.55
44 | A2U C12A G63U C104G U109C | -6.12
45 | A2G G61A U116A | -4.16
46 | A2G C20A C88U | -4.8
47 | A2G C13U A46U C86A G113U G120U C123G | -4.13
48 | A2C U59C C73A U131A | -2.5

Row | Variant | polymerase ribozyme fitness (log ratio)
49 | A2G U9C C13U A18U C56G C72G A95G | -4.64
50 | A2C C12G | -1.09
51 | A2G G45U C82A | -2.5
52 | A2G C13G C86U C123A U133C | 0.0468
53 | A2U C40A G128U | -4.11
54 | A2C C4A G120A | 0.58
55 | A2G U55G G135U | -1.42
56 | A2U C76A | -3.43
57 | A2U C12U G110A U129C | -1.58
58 | A2G A18C A91C | -2.93
59 | A2U C56A G120C | -2.63
60 | A2C G61U | -1.66
61 | A2U C72U G110A | -4.59
62 | A2G A29G G71A A90C | -3.65
63 | A2C C72A G120U | -1.37
64 | A2C G39U | -2.12
65 | A2U A37U C62U C72U U78A C124G | -0.559
66 | A2C C72U | -2.38
67 | A2U C88G U130A | -2.84
68 | A2G G60C G71U A91C G120C | -6.25
69 | A2G C13U C53U | -0.428
70 | A2U C11G | 0.322
71 | A2G C12G U21A G71U U78A A121U | 0.758
72 | A2C U106A | -1.44

Row | Variant | polymerase ribozyme fitness (log ratio)
73 | A2U G10U A100C | -4.35
74 | A2G C56A C73U A84U G120U | -1.68
75 | A2U G39C G45A U132A | -3.5
76 | A2G C12U C101U A105U C115A | -1.02
77 | A2G A74U C89G U112A | -1.32
78 | A2C C20G G60A U112C | -4.64
79 | A2G C13U | 0.291
80 | A2U C13U A50G G63A U112C | -1.43
81 | A2C C49G U67G A84G G110U | -5.64
82 | A2C C3G G71C U129A | -4.77
83 | A2C G47C C123G | -2.2
84 | A2G G19U C34U G47A C49A C80A G93C G120U | -6.24
85 | A2G A68G U106G U125G | -5.29
86 | A2U A50U | -3.14
87 | A2G C70U U96A | -1.87
88 | A2G C12U | -0.378
89 | A2G U7A C70U A74C | -0.954
90 | A2G C82G | -1.18
91 | A2C C15U C56U U129C | -1.75
92 | A2U C40U C115A U133G | -2.75
93 | A2C C3G G52U G60A U129A | -5.23
94 | A2C U54C G110A | -3.04
95 | A2G U7A C12A G39A C82A G122A | -0.0716
96 | A2U C99U | -5.84

Row | Variant | polymerase ribozyme fitness (log ratio)
97 | A2G G63C | -0.0882
98 | A2G U55G G71A A95U | -1.12
99 | A2U A91C G120U | -3.98
100 | A2C A5C C62A G128C | -2.75
101 | A2C G19A A29C A41G A43U C64G G113A C123A U126G | -5.93
102 | A2C C49A G93U G110A | -4.44
103 | A2G C12U C56A C97U C124U | 0.631
104 | A2C U33A C97A U106A G120C U126A | -6.8
105 | A2G G52U G69C C86U | -1.64
106 | G1U | 0.29
107 | A2C C3U | -1.71
108 | A2G G51A C73G | -2.89
109 | A2G G39U G57C A74U U112A C114G | -2.17
110 | A2G C12G G17A U54C C88U A91U C101U A105U C114G | -5.19
111 | A2G G110U A118G | -1.67
112 | A2C C15A A27C C31A G51U A84C C99G A121U U130G | -6.15
113 | A2G G48U C80U U130C | -2.35
114 | A2G G19U G120U | -2.98
115 | A2C C4U U9A C76U | -0.884
116 | A2G C123G | 1.69
117 | A2C C89G | -3.68
118 | A2U C13U G77C | -1.85
119 | A2G C13U A91C G122A | -0.77
120 | A2G C22A | -4.99

Row | Variant | polymerase ribozyme fitness (log ratio)
121 | A2U A6G C12U A24G C56A C97U | -3.05
122 | A2G G93C | -1.48
123 | A2U A6G G17U G39U G52U C73G | -5.54
124 | A2G A27U C79G C104U | -4.76
125 | A2G A18U A29G C104G C124U U130G | -4.82
126 | A2G G61A | 0.0396
127 | A2U C115G | -3.95
128 | A2C A105C | -4.23
129 | A2U G51A C123A | -4.9
130 | A2C G42C U96A C123U | -3.31
131 | A2U A5C A26G U54A | -4.4
132 | A2U C11G G48U G93U G120C G122U | -1.28
133 | A2U C62U G117U | -5.02
134 | A2G C82A A111U | -4.1
135 | A2C C15U C104U | -2.51
136 | A2U C13A C73G | -5.15
137 | A2U A37G G61A U87G | -2.89
138 | A2C A37U C56G G69A U78G G120U | -5.2
139 | A2C U59G | -1.54
140 | A2G G47U A84C C88U A90U A91C U133G | -2.71
141 | A2U C11U G45A U81C | -6.34
142 | A2C C40G C56G C72G C124U | -4.17
143 | A2G C56A | -0.384
144 | A2G G19A A43G C80U C104U | -4.42

Row | Variant | polymerase ribozyme fitness (log ratio)
145 | A2U C11A U33A A37U G61U G120A | -4.91
146 | A2U C102U G113A U129A | -2.88
147 | A2U G42A A83U C88U | -5.05
148 | A2U C13A C28U U112G | -6
149 | A2U C8G A27C G36C C40G G60A G93C G110U U130G | -5.89
150 | A2C A50U | -2.44
151 | A2U C8U G69U C82G C114U | -2.12
152 | A2G C8A G51U U59G | -2.18
153 | A2G G36C G48U G52U U59G C79G U112C | 0.109
154 | A2C G52C | -2.58
155 | A2C C12G C115A U125A | -2.05
156 | A2U C22U C86U G110U | -6.04
157 | A2G C62U A83G | -1.82
158 | A2U G35U G69U C79U G120A G128A | -3.99
159 | A2G G42U G69A C123A | -5.6
160 | A2G G35C C124A | -4.18
161 | A2G G122A U129C | -1.77
162 | A2C G63U A84G U131G | -4.08
163 | A2U A16U U96A G128A | -4.83
164 | A2G G120A | 0.359
165 | A2C C11A G17C C70U C123G | -3.69
166 | A2U A121U | -0.628
167 | A2U A108G | -3.51
